Data on one molecule can be found in patent US20110052551A1, “CARDIAC MYOCYTE MORPHOGENIC COMPOSITIONS AND METHODS OF USE THEREFOR” (priority 2008, published 2011).

Experiment [1] has as its system unfractionated BMMNCs. Kind of experiment: qRT-PCR of Wnt3a and β-catenin expression in cultured BMMNCs. Particulars: 21 days, relative to baseline. It counts as cell-based, mice. How it is done: Assessment of mRNA expression by quantitative real-time RT-PCR (qRT-PCR). All qRT-PCR reagents and primers were purchased from Qiagen Inc. (Valencia, Calif., United States of America). Prior to mRNA extraction, cell number was determined and calculated by Trypan blue exclusion. cDNA was generated from freshly isolated (designated as baseline) and cultured unfractionated BMMNCs at days 0, 3, 7, and 21 (see FIG. 9A) using QUANTISCRIPT REVERSE TRANSCRIPTASE™ (Qiagen Inc., Valencia, Calif., United States of America) contained in RT master mix of Cell to cDNA kits according to manufacturer's protocol. […]
To avoid amplification of contaminating DNA, all validated qRT-PCR primers were designed to cross […] sequences within the cDNA to be amplified. Quantitative qRT-PCR analysis was performed in an ABI Prism 7900H sequence detection system (Applied Biosystems, Foster City, Calif.) using QUANTITECT™ SYBR® Green Real Time PCR kits. Each 50 μl qRT-PCR reaction contained 2 μl (approximately 50 ng) of cDNA, 5 μl of 1× primer mix (containing approximately 500 nM sense and anti-sense primers) and 25 μl of 2× QUANTITECT™ SYBR® Green master mix. […]
The PCR product level is calculated from the threshold cycle (Ct). That is, the amplification cycle number at which exponential PCR-generated gene-specific fluorescence is first detected (above a fixed threshold level). […]

In experiment [2] the test system is unfractionated BMMNCs. Briefly: qRT-PCR of cardiac-specific mRNA levels in cultured BMMNCs. It counts as cell-based, mice. Particulars: 21 days of culture. The source says: Induction of differentiation. To assess the influence of ectopic expression of Wnt11 on BMMNC differentiation, Wnt11 conditioned medium (Wnt11-CM) was generated. Specifically, unfractionated BMMNCs were co-cultured with Wnt11-expressing HEK-293 cells (Wnt11/293-2; designated as Wnt11-CM), under the same conditions used to culture BMMNCs. In order to achieve strict separation of cell types during co-culture experiments, BMMNC and Wnt11/293 cells were separated into upper and lower chambers of a TRANSWELL® co-culture system. […]
Assessment of mRNA expression by quantitative real-time RT-PCR (qRT-PCR). […] Prior to mRNA extraction, cell number was determined and calculated by Trypan blue exclusion. cDNA was generated from freshly isolated (designated as baseline) and cultured unfractionated BMMNCs at days 0, 3, 7, and 21 (see FIG. 9A) using QUANTISCRIPT REVERSE TRANSCRIPTASE™ (Qiagen Inc., Valencia, Calif., United States of America) contained in RT master mix of Cell to cDNA kits according to manufacturer's protocol. […]
To avoid amplification of contaminating DNA, all validated qRT-PCR primers were designed to cross […] sequences within the cDNA to be amplified. Quantitative qRT-PCR analysis was performed in an ABI Prism 7900H sequence detection system (Applied Biosystems, Foster City, Calif.) using QUANTITECT™ SYBR® Green Real Time PCR kits. […]

B1: Wnt3a: recombinant Wnt3a protein, canonical Wnt, used at 150 ng/ml (protein, UniProt P56704 19-352, looked up)
Protein Wnt-3a: SYPIWWSLAVGPQYSSLGSQPILCASIPGLVPKQLRFCRNYVEIMPSVAEGIKIGIQECQHQFRGRRWNCTTVHDSLAIFGPVLDKATRESAFVHAIASAGVAFAVTRSCAEGTAAICGCSSRHQGSPGKGWKWGGCSEDIEFGGMVSREFADARENRPDARSAMNRHNNEAGRQAIASHMHLKCKCHGLSGSCEVKTCWWSQPDFRAIGDFLKDKYDSASEMVVEKHRESRGWVETLRPRYTYFKVPTERDLVYYEASPNFCEPNPETGSFGTRDRTCNVSSHGIDGCDLLCCGRGHNARAERRREKCRCVFHWCCYVSCQECTRVYDVHTCK
As for B1, the “increase in β-catenin expression” value in experiment [1] is 183.4±0.3 fold. In addition, the cardiac-specific transcripts result in experiment [2] was “no cardiac-specific transcripts were detected”.
